Data: PMC6706699 (Developmental Cell, 2019)
Square brackets hold non-standard residues; d marks the D form. Ends that are not written are not given here. pT = C[C@@H](OP(=O)(O)O)[C@H](N)C(=O)O

What was measured:
[1] = molecular target: μ2T156-phosphorylated AP2, endogenous in RPE cells (human (endogenous in RPE)) (UniProt O95782); assay: co-IP; native co-immunoprecipitation with anti-AP2α antibody AP6 on protein G-Sepharose from RPE cell lysates (0.1% NP40), overnight at 4°C; western blot
[2] = molecular target: TGN38 cytoplasmic domain peptide, lipid-linked, in PtdIns4,5P2 liposomes; assay: SPR; BIAcore T200, liposomes (PC/PE with 4% PtdIns4,5P2 and 2% lipid-linked peptide) on an L1 sensor; core or Pcore injected at 50 nM to 50 μM; 10 mM Tris pH 8.7, 250 mM NaCl, 1 mM DTT; apparent constants from fast and slow dissociation amplitudes
[3] = molecular target: NECAP1 PHear domain, 1-133 (UniProt Q8NC96); assay: ITC; details: reference: unphosphorylated peptide …; sites T156
[4] = molecular target: Recombinant T156-phosphorylated AP2 core (UniProt P18484); assay: ITC; Nano ITC, 10°C, 100 mM TRIS pH 8, 250 mM NaCl, 0.25 mM TCEP; 0.05-0.1 mM Pcore in the cell, 2-3 mM PHear titrated in
Sequence of Recombinant T156-phosphorylated AP2 core (UniProt P18484) (P18484 whole entry, chain 1 of 4): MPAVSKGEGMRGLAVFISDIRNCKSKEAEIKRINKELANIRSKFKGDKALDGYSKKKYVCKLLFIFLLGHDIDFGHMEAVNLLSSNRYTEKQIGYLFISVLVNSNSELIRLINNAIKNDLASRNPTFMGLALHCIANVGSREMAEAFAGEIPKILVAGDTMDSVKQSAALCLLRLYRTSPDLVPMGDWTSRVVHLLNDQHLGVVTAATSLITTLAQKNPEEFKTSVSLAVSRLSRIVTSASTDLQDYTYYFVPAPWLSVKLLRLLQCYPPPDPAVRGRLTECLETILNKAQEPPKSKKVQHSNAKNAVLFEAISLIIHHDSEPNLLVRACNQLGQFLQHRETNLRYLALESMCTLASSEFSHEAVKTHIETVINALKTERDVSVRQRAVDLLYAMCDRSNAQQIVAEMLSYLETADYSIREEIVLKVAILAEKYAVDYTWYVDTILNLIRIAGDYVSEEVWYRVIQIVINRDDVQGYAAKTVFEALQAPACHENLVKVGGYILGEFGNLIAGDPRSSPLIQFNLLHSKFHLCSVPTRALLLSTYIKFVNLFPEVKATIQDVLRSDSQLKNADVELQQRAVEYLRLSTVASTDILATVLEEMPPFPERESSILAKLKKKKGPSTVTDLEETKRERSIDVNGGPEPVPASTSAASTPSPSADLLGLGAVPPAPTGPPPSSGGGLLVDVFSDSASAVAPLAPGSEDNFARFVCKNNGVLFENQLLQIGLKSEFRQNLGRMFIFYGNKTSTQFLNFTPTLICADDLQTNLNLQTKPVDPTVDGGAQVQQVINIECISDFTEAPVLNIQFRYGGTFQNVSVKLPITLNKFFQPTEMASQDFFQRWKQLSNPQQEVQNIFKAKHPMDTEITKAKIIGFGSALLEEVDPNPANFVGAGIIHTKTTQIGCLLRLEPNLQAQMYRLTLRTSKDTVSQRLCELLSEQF
Sequence of Recombinant T156-phosphorylated AP2 core (UniProt P18484) (P63010 1-592, chain 2 of 4, further chain): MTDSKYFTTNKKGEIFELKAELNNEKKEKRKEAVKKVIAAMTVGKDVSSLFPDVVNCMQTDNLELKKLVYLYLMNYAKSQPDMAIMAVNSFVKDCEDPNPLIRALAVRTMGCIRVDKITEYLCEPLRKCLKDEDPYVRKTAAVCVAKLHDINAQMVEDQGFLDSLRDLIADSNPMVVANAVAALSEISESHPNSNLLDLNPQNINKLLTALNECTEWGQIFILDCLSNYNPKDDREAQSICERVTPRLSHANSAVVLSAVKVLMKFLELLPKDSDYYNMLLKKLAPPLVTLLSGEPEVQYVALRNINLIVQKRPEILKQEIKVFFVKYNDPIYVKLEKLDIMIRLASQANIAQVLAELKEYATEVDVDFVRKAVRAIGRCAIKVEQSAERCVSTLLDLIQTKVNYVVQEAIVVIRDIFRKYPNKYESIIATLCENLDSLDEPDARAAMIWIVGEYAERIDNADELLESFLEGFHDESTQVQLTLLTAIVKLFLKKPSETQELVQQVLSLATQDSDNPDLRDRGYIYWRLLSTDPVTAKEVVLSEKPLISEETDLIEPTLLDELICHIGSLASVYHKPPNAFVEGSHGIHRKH
Sequence of Recombinant T156-phosphorylated AP2 core (UniProt P18484) (P84092 whole entry, chain 3 of 4, further chain): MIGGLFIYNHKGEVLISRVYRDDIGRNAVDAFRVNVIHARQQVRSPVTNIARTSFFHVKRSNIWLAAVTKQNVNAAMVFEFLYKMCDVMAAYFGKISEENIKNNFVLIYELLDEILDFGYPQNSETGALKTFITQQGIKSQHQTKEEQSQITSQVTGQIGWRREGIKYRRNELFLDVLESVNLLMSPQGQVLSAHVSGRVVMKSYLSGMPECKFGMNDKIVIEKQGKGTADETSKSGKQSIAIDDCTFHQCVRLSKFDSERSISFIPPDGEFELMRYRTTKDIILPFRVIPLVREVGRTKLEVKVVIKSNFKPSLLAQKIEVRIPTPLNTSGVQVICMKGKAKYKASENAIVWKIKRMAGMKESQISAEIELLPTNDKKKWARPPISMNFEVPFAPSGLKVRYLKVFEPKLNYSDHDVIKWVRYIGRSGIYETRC
Sequence of Recombinant T156-phosphorylated AP2 core (UniProt P18484) (P62743 whole entry, chain 4 of 4, further chain): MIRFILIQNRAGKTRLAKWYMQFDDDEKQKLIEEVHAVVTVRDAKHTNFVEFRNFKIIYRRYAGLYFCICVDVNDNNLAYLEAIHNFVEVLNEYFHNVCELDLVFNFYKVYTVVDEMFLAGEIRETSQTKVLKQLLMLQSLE

[5] = molecular target: T1, NECAP1 PHear (1-133) R102A (UniProt Q8NC96 1-133, R102A); assay: ITC
T1 sequence: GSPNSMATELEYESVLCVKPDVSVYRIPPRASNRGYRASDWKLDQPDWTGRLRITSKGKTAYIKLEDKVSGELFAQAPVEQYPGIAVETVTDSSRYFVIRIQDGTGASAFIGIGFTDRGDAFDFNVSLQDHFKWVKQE

[6] = molecular target: T2, NECAP1 PHear (1-133) S88A (UniProt Q8NC96 1-133, S88A); assay: ITC
T2 sequence: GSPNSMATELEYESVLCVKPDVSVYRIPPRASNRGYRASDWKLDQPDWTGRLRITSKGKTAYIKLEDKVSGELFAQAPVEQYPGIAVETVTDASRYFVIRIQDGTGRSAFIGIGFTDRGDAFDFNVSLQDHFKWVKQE

[7] = molecular target: T3, NECAP1 PHear (1-133) R32D (UniProt Q8NC96 1-133, R32D); assay: ITC
T3 sequence: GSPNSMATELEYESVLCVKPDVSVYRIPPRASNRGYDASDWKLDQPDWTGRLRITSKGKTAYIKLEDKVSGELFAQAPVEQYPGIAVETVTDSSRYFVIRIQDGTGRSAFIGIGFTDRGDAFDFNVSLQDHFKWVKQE

[8] = molecular target: T4, NECAP1 PHear domain (NECAP 1-133), wild type (UniProt Q8NC96 1-133); assay: ITC; + FxDxF peptide
T4 chain: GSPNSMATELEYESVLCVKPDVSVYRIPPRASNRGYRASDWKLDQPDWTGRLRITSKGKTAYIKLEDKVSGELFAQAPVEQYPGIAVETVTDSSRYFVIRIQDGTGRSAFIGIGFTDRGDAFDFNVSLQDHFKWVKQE

[9] = molecular target: NECAP1 PHear domain (NECAP 1-133), wild type (UniProt Q8NC96); assay: ITC; Nano ITC, 12°C, 75 mM HEPES pH 7.4, 0.25 mM TCEP; PHear domains in the cell, peptides at 1-5 mM titrated in
[10] = molecular target: T5, NECAP1 PHear (1-133) S88A (UniProt Q8NC96 1-133, S88A); assay: as above; details: both partners purified
T5 construct: NECAP1 PHear domain, residues 1-133; source: E. coli BL21DE3 pLysS, purified (GST sepharose, thrombin cleavage, gel filtration); not shown: GST, N-terminal, cleaved
T5 sequence: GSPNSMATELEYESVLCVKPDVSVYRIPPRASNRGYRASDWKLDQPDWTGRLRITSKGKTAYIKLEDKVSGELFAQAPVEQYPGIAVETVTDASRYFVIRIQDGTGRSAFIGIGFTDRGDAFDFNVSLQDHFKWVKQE

[11] = molecular target: T6, NECAP1 PHear (1-133) R32D (UniProt Q8NC96 1-133, R32D); assay: as above; details: both partners purified
T6 construct: NECAP1 PHear domain, residues 1-133; Not in the plasmid list; source: E. coli BL21DE3 pLysS, purified (GST sepharose, thrombin cleavage, gel filtration); not shown: GST, N-terminal, cleaved
T6 sequence: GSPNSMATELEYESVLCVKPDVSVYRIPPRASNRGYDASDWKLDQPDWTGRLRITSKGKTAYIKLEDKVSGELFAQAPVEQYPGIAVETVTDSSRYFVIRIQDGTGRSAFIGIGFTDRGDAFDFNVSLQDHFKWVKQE

[12] = molecular target: T7, NECAP1 PHear (1-133) R102A (UniProt Q8NC96 1-133, R102A); assay: as above; details: both partners purified
T7 construct: NECAP1 PHear domain, residues 1-133; source: E. coli BL21DE3 pLysS, purified (GST sepharose, thrombin cleavage, gel filtration); not shown: GST, N-terminal, cleaved
T7 sequence: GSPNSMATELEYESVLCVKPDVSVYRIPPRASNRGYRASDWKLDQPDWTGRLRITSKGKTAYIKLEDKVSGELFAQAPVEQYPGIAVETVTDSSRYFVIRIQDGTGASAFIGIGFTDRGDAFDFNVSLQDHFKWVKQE

Sequence of μ2T156-phosphorylated AP2, endogenous in RPE cells (human (endogenous in RPE)) (O95782 whole entry, chain 1 of 4, the tested form may be a part): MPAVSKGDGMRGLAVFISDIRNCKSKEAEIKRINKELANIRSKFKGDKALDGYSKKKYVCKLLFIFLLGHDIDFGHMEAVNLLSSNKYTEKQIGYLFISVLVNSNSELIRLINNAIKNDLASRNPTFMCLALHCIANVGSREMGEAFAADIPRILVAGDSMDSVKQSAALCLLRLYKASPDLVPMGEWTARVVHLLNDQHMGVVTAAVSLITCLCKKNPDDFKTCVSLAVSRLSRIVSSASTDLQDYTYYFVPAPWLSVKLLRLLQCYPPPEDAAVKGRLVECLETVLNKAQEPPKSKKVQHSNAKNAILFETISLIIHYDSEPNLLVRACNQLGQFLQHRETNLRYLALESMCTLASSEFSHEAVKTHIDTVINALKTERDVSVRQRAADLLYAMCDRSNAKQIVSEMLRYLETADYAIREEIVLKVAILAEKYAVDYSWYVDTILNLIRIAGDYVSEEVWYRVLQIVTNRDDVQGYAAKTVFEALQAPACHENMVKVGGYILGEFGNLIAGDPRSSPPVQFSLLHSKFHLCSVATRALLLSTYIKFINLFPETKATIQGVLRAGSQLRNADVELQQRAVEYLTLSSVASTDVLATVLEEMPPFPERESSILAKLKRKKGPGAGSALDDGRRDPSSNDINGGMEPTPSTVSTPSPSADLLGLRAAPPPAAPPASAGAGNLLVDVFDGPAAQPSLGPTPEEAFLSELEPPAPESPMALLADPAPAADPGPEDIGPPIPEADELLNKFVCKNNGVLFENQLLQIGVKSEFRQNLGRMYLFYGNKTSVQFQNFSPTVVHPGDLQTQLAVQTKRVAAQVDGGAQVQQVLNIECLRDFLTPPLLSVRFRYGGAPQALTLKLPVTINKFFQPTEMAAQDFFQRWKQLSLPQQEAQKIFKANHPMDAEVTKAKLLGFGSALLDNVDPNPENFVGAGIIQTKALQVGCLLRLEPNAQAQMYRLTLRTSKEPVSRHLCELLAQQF
Sequence of μ2T156-phosphorylated AP2, endogenous in RPE cells (human (endogenous in RPE)) (P63010 whole entry, chain 2 of 4, further chain, the tested form may be a part): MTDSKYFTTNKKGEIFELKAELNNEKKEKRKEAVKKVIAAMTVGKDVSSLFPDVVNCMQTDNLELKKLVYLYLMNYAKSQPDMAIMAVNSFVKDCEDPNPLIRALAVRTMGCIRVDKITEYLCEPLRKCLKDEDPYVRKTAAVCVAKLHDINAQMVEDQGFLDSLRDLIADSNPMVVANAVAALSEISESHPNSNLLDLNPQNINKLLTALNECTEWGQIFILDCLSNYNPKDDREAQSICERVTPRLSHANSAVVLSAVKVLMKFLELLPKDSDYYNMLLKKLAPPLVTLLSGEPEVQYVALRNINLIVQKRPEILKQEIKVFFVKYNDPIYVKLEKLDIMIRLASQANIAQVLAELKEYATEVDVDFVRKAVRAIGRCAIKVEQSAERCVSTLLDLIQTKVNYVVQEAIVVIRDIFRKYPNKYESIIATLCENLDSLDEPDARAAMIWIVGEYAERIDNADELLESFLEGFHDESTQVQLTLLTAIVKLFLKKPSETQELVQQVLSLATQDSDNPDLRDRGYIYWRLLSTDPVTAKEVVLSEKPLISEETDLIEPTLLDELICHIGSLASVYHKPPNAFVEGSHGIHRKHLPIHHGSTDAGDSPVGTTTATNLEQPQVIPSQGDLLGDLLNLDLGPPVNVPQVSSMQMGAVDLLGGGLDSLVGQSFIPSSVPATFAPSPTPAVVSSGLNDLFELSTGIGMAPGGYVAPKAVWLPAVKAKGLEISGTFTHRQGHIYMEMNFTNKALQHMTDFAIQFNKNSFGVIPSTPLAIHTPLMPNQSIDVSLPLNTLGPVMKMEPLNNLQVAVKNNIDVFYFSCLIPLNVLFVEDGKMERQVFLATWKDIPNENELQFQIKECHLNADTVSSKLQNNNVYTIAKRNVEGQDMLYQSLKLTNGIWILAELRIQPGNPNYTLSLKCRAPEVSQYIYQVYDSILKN
Sequence of μ2T156-phosphorylated AP2, endogenous in RPE cells (human (endogenous in RPE)) (Q96CW1 whole entry, chain 3 of 4, further chain, the tested form may be a part): as the sequence (P84092 whole entry, chain 3 of 4, further chain) above
Sequence of μ2T156-phosphorylated AP2, endogenous in RPE cells (human (endogenous in RPE)) (P53680 whole entry, chain 4 of 4, further chain, the tested form may be a part): as the sequence (P62743 whole entry, chain 4 of 4, further chain) above

A percent reduction in binding against NECAP1-mRuby2 WT [1] of 60% was found for “mRuby2-Flag-GGGS-NECAP1 R90A (from UniProt Q8NC96-1 1-275) (natural protein)” in this work.

A fold increase in liposome-binding affinity against the unphosphorylated core [2] of 3 fold was found for “Recombinant T156-phosphorylated AP2 core (from UniProt P18484 1-938; P63010 1-592; P84092 1-435; P62743 1-142) (complex)” in this work.

With “AP2 μ2 subunit (recombinant AP2 core / Pcore, GST-μ2 linkers, μ2 linker peptides) μ2 linker, 149-163 (from UniProt P84092) pT156 peptide” the KD [3] was “gained; reference no binding detected”.

A Kd [4] of 8 µM was found for “NECAP1 PHear domain (NECAP 1-133), wild type (from UniProt Q8NC96 1-133) (domain or fragment)” in this work.

B1: T156-phosphorylated μ2 linker peptide (residues 149–163) (peptide)
peptide: SQITSQV[pT]GQIGWRR
notes: also called Peptide μ2linker Phos; phosphorylated μ2 peptide; source: synthetic peptide (Genscript)
A Kd [5] of 57 µM, a Kd [6] of over 300 µM and a Kd [7] of 126 µM were found for B1 in this work. The Kd [8] was 44.9 µM, the Kd [9] was 55 µM and the binding result [10] was “binds”. B1: binds [11]; binds [12].
